Reference: patent US20150110786A1 (YEDA RESEARCH AND DEVELOPMENT, published 2015)

T1: Recombinant human QSOX1 (HsQSOX1 33-546) (human, UniProt O00391 33-546, bound FAD cofactor)
T1 construct: also called full-length HsQSOX1; rQSOX1
T1 sequence: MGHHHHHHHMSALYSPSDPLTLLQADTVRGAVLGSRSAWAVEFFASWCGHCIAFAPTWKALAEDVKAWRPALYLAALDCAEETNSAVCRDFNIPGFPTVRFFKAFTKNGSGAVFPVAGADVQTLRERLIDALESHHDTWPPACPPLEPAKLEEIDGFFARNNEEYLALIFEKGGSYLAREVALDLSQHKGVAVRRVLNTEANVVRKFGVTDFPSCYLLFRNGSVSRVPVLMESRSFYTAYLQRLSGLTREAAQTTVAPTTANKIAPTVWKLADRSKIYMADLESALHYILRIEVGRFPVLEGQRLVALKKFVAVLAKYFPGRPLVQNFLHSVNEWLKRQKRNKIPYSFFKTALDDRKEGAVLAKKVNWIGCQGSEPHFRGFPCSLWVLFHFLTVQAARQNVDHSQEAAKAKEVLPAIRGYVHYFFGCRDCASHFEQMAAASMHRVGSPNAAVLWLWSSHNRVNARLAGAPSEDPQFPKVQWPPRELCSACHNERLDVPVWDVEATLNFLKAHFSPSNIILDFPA

T2: HsQSOX1Erv (carboxy-terminal fragment of human QSOX1, psi-Erv and Erv domains) (human, UniProt O00391 286-546, limits assumed, bound FAD cofactor)
T2 construct: domain: carboxy-terminal fragment, HsQSOX1Erv (two Erv-fold domains); also called HsQSOX1 carboxy-terminal fragment
T2 sequence (looked up): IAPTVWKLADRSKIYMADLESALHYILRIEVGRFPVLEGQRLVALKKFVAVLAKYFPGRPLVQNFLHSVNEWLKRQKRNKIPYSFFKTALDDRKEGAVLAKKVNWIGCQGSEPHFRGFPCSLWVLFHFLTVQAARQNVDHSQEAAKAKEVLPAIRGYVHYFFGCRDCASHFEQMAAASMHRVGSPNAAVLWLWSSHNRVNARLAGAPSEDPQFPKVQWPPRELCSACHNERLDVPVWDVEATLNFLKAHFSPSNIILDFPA

B1: scFv492.1 (scFv)
scFv: QVQLKQSGPGLVAPSQSLSITCTVSGFSLTGYGVNWVRQSPGKGLEWLGMIWGDGRTDYKSALKSRLSITKDNSKSQVFLKMNSLQTDDTARYFCASDYYGSGSFAYWGQGTLVTVSAGGGGSGGGGSGGGGSDVVMTQTHKFMSTSVGDRVSITCKASQDVSTAVAWYQQKSGQSPKLLIHSASYRYTGVPDRFTGSGSGTDFTFTISSVQAEDLAVYYCQQHYSIPLTFGAGTKLELK
notes: also called single chain antibody fragment of MAb492.1; not shown: thrombin-cleavable His6-tag at the amino terminus
B2: MAb492.1 (antibody, V domains shown)
VH: QVQLKQSGPGLVAPSQSLSITCTVSGFSLTGYGVNWVRQSPGKGLEWLGMIWGDGRTDYKSALKSRLSITKDNSKSQVFLKMNSLQTDDTARYFCASDYYGSGSFAYWGQGTLVTVSA
VL: DVVMTQTHKFMSTSVGDRVSITCKASQDVSTAVAWYQQKSGQSPKLLIHSASYRYTGVPDRFTGSGSGTDFTFTISSVQAEDLAVYYCQQHYSIPLTFGAGTKLELK
notes: also called anti-QSOX1 monoclonal antibody; QSOX1-specific monoclonal antibody
B3: Fab492.1 (Fab fragment of MAb492.1) (Fab, V domains shown)
VH: B2 VH
VL: B2 VL

Experiments:
[1] = biological target: T1, Recombinant human QSOX1 (HsQSOX1 33-546); assay: calculated from the IC50 of the rdRNase oxidation colorimetric assay with the equation for competitive inhibition
Description: Reactions of 100 μL volume were conducted in 96 well plates (Nunc). Reduced and denatured RNaseA (Sigma) was used as a model substrate and was prepared as follows. Ten mg RNase was dissolved in 1 ml of 20 mM phosphate buffer, pH 6.5, 6 M GuHCl, and 100 mM DTT, and incubated at 37° C. for 1 hr. The protein was desalted on a PD-10 column (GE Healthcare) equilibrated with DDW, and its thiol content was determined by DTNB absorbance at 412 nm. 50 nM recombinant HsQSOX1 and various concentrations of monoclonal antibody clones were incubated for 30 min at RT. Reactions were initiated with the addition of 200 μM RNase thiols and were quenched after 25 min with 1 mM DTNB. Absorbance was measured at 405 nm in a microplate reader.

[2] = biological target: T1, Recombinant human QSOX1 (HsQSOX1 33-546); assay: cell-based or functional assay
[3] = biological target: T2, HsQSOX1Erv (carboxy-terminal fragment …); assay: ELISA
[4] = biological target: T1, Recombinant human QSOX1 (HsQSOX1 33-546); assay: oxygen consumption assay, 25 nM HsQSOX1, 1-250 nM MAb492.1, 200 µM DTT, fit to a tight-binding inhibitor model
Description: A Clarke-type oxygen electrode (Hansatech Instruments) was used to monitor changes in dissolved oxygen concentrations as a measure of HsQSOX1 activity. […] Reactions were started by injection of dithiothreitol (DTT) to a concentration of 200 μM in the electrode reaction chamber. […] The ratios of the initial rates of HsQSOX1 in the presence and absence of inhibitor were plotted as a function of inhibitor concentration.
This assay allows direct determination of initial velocities and not just degree of activity.

Binder	Ki [1]	IC50, inhibition of rdRNase oxidation (DTNB colorimetric assay), 50 nM HsQSOX1 [2]	binding result [3]	IC50, inhibition of rdRNase oxidation (DTNB colorimetric assay), 250 nM HsQSOX1 [2]	Ki [4]
B1	130 nM	250 nM			
B2		60 nM	no binding	240 nM	1 nM
B3		100 nM			
